According to patent US20040037775:

Experiments:
[1] = system: T1, MTX-cIBR conjugate (methotrexate-cyclo-Leu Pro Arg Gly Gly Ser Val Leu Val Thr)
T1 sequence: LPRGGSVLVT

MTX-cIBL conjugate = system: T2, MTX-cIBL conjugate
T2 sequence: QTSVSPSKVI

Substance: dihydrofolate reductase enzyme (DHFR)
- Km relative to MTX [1]: approximately 4 and 15 fold times less than that of MTX, respectively
- Km relative to MTX (MTX-cIBL conjugate): approximately 4 and 15 fold times less than that of MTX, respectively
